Measured values taken from patent publication US20200231654A1 (published 2020).

Legend:
[1] = molecular target: T1, MMP-2, active, Human, Recombinant, CHO Cells (human, UniProt P08253 110-660); test: enzyme inhibition
T1 chain: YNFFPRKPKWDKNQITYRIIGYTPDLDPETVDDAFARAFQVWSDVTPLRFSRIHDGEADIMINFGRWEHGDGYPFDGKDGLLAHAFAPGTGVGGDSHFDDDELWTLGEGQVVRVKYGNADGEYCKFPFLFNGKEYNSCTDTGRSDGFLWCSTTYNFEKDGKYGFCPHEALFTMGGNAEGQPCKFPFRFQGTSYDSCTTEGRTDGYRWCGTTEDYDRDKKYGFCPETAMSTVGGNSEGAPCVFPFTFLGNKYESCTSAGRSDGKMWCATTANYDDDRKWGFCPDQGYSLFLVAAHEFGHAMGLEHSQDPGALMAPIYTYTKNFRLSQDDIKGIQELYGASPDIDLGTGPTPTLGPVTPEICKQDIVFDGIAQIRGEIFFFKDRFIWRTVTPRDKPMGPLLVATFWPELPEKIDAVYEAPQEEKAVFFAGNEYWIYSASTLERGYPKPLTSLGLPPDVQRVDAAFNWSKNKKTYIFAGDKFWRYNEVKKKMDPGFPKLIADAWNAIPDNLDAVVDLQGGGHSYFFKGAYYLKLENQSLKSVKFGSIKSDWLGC

[2] = molecular target: Recombinant Human MMP-16/MT3-MMP Protein, CF (human, UniProt P51512 32-564); test: enzyme inhibition
Chain of Recombinant Human MMP-16/MT3-MMP Protein, CF (P51512 32-564): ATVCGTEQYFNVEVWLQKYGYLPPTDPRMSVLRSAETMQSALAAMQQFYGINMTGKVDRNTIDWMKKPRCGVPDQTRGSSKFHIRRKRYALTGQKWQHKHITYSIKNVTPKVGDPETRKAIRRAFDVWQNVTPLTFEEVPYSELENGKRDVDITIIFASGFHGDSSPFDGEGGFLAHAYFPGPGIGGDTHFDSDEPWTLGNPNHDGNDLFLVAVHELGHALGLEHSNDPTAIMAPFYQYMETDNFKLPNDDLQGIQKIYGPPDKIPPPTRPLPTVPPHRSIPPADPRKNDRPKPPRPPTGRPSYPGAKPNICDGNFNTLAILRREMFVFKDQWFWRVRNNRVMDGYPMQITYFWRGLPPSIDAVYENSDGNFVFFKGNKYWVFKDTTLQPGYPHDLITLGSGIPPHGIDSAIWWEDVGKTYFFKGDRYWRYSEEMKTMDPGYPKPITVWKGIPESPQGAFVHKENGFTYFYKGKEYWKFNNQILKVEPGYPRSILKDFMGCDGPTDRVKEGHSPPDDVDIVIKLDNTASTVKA

[3] = molecular target: MMP14 Recombinant Protein (human, UniProt P50281 112-287); test: enzyme inhibition
[4] = molecular target: APMA-activated human MMP-13 enzyme active domain (human, UniProt P45452 104-274); test: enzyme inhibition
[5] = molecular target: human MMP-3 activated by APMA (human, UniProt P08254 100-477); test: enzyme inhibition
Chain of human MMP-3 activated by APMA (P08254 100-477): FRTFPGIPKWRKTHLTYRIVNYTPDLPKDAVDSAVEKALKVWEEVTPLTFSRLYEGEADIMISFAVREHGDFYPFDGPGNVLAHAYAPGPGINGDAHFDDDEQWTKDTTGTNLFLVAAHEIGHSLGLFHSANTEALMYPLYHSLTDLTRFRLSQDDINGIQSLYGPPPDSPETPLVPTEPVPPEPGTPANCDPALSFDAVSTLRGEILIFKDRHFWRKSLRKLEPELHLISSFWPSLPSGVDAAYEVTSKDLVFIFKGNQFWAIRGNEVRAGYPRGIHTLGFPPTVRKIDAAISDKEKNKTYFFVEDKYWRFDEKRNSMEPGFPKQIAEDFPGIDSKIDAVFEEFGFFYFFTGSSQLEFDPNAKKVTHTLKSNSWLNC

[6] = molecular target: T2, APMA-activated human MMP-1 enzyme active domain (human, UniProt P03956 100-269); test: enzyme inhibition
T2 chain: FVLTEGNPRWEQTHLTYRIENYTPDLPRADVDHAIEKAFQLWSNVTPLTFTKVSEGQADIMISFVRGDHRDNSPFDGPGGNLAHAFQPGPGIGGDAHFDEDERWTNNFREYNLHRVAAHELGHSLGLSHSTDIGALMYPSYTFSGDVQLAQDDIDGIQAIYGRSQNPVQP

[7] = molecular target: T3, Recombinant Human MMP-17 Protein, CF (human, UniProt Q9ULZ9 36-565); test: enzyme inhibition
T3 chain: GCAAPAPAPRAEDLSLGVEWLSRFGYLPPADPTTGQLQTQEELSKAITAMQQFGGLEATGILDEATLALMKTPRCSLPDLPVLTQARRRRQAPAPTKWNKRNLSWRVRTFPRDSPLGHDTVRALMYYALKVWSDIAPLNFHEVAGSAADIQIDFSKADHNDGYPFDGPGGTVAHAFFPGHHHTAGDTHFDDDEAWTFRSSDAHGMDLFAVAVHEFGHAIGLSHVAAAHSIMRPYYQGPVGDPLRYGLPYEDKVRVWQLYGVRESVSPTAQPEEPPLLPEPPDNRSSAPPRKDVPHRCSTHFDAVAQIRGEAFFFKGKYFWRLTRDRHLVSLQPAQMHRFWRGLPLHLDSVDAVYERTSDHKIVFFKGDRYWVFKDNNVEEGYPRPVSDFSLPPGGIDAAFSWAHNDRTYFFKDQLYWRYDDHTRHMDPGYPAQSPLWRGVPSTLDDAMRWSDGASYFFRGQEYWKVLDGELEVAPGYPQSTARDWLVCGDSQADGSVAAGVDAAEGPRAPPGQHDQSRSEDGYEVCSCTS

[8] = molecular target: MT2-MMP, Catalytic Domain, Human, Recombinant, E. coli (human, UniProt P51511 132-304); test: enzyme inhibition
Chain of MT2-MMP, Catalytic Domain, Human, Recombinant, E. coli (P51511 132-304): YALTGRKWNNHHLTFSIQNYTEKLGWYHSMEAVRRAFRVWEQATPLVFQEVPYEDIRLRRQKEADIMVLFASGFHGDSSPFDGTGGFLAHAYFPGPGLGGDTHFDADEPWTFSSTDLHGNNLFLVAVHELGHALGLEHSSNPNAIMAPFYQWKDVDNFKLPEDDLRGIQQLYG

[9] = molecular target: MMP-12 (catalytic domain) (human), (recombinant) (human, UniProt P39900 106-263); test: enzyme inhibition
Chain of MMP-12 (catalytic domain) (human), (recombinant) (P39900 106-263): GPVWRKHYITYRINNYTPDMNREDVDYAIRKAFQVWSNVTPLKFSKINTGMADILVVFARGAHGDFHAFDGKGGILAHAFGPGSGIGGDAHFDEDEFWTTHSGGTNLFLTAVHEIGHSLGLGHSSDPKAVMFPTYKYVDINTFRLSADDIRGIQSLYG

[10] = molecular target: T4, ADAM17 (catalytic domain) (human), (recombinant) (His-tag) (human, UniProt P78536 215-477); test: enzyme inhibition
T4 chain: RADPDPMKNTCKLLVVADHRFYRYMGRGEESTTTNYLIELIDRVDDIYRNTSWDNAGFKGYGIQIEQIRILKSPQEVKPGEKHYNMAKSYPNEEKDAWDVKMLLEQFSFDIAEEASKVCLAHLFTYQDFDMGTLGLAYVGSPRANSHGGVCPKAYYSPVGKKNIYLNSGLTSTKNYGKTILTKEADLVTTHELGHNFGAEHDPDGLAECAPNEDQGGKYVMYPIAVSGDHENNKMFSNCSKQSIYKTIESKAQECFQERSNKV

[11] = molecular target: APMA-activated human MMP-8 enzyme active domain (human, UniProt P22894 101-262); test: enzyme inhibition
Chain of APMA-activated human MMP-8 enzyme active domain (P22894 101-262): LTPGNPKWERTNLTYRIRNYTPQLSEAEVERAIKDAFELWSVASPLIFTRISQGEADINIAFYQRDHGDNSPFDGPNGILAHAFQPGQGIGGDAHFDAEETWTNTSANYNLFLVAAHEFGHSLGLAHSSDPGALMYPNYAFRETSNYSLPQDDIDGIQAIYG

[12] = molecular target: MMP-10 (catalytic domain) (human), (recombinant) (human, UniProt P09238 99-266); test: enzyme inhibition
Chain of MMP-10 (catalytic domain) (human), (recombinant) (P09238 99-266): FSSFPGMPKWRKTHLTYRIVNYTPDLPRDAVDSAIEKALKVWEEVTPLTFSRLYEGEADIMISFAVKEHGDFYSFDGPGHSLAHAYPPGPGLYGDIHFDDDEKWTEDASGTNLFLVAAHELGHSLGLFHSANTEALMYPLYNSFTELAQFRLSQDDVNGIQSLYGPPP

[13] = molecular target: T5, MMP-7 (catalytic domain) (human), (recombinant) (human, UniProt P09237 95-267); test: enzyme inhibition
T5 chain: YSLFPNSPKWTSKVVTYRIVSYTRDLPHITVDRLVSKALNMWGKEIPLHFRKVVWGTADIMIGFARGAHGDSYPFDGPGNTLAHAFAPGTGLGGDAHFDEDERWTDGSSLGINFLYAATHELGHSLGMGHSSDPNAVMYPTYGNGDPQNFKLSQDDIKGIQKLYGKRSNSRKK

[14] = molecular target: T6, active hMMP-9(cat)_His6 (UniProt P14780 107-449); test: enzyme inhibition; substrate gelatin
T6 sequence (P14780 107-449): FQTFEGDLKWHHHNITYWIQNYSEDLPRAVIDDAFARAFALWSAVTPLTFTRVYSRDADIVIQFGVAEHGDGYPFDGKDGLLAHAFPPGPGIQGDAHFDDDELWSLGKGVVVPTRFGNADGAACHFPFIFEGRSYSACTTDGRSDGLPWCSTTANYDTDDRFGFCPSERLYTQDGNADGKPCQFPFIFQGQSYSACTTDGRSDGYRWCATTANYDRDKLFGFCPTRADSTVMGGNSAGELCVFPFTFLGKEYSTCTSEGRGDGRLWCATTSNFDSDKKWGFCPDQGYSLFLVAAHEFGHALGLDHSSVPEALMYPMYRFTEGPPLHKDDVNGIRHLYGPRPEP

[15] = molecular target: T6, active hMMP-9(cat)_His6; test: enzyme inhibition; substrate peptide

B1: active MMP-9-binding peptide M91014 (designed binder)
chain: GSGMKETAAAKFERQHMDSPDLGTDDDDKAMADIGSANSDPQFGLFSKYRTPNCVMYKYAQCSHKYKPVCGSDMSTYANECTLCMKIREGGHNIKIIRNGPCGASAAA
IC50 [1]: > 1000 nM
IC50 [2]: > 1000 nM
IC50 [3]: > 1000 nM
IC50 [4]: > 1000 nM
IC50 [5]: > 1000 nM
IC50 [6]: > 1000 nM
IC50 [7]: > 1000 nM
IC50 [8]: > 1000 nM
IC50 [9]: > 1000 nM
IC50 [10]: > 1000 nM
IC50 [11]: > 1000 nM
IC50 [12]: > 1000 nM
IC50 [13]: > 1000 nM
IC50 [14]: 3 nM
Ki [15]: 0.45 nM

B2: active MMP-9-binding peptide M91004 (designed binder)
chain: GSGMKETAAAKFERQHMDSPDLGTDDDDKAMADIGSANSDPQFGLFSKYRTPNCRQRKGPSCQMAFQPVCGSDMSTYANECTLCMKIREGGHNIKIIRNGPCGASAAA
IC50 [1]: > 1000 nM
IC50 [2]: > 1000 nM
IC50 [3]: > 1000 nM
IC50 [4]: > 1000 nM
IC50 [5]: > 1000 nM
IC50 [6]: > 1000 nM
IC50 [7]: > 1000 nM
IC50 [8]: > 1000 nM
IC50 [9]: > 1000 nM
IC50 [10]: > 1000 nM
IC50 [11]: > 1000 nM
IC50 [12]: > 1000 nM
IC50 [13]: > 1000 nM
IC50 [14]: 7.6 nM
Ki [15]: 1.2 nM

B3: active MMP-9-binding peptide M91001 (designed binder)
chain: GSGMKETAAAKFERQHMDSPDLGTDDDDKAMADIGSANSDPQFGLFSKYRTPNCQRGIGPSCQMSYKPVCGSDMSTYANECTLCMKIREGGHNIKIIRNGPCGASAAA
IC50 [1]: > 1000 nM
IC50 [2]: > 1000 nM
IC50 [3]: > 1000 nM
IC50 [4]: > 1000 nM
IC50 [5]: > 1000 nM
IC50 [6]: > 1000 nM
IC50 [7]: > 1000 nM
IC50 [8]: > 1000 nM
IC50 [9]: > 1000 nM
IC50 [10]: > 1000 nM
IC50 [11]: > 1000 nM
IC50 [12]: > 1000 nM
IC50 [13]: > 1000 nM
IC50 [14]: 8.3 nM
Ki [15]: 2.6 nM

B4: active MMP-9-binding peptide M91010 (designed binder)
chain: GSGMKETAAAKFERQHMDSPDLGTDDDDKAMADIGSANSDPQFGLFSKYRTPNCRKVGEPACQMSFNPVCGSDMSTYANECTLCMKIREGGHNIKIIRNGPCGASAAA
IC50 [1]: > 1000 nM
IC50 [2]: > 1000 nM
IC50 [3]: > 1000 nM
IC50 [4]: > 1000 nM
IC50 [5]: > 1000 nM
IC50 [6]: > 1000 nM
IC50 [7]: > 1000 nM
IC50 [8]: > 1000 nM
IC50 [9]: > 1000 nM
IC50 [10]: > 1000 nM
IC50 [11]: > 1000 nM
IC50 [12]: > 1000 nM
IC50 [13]: > 1000 nM
IC50 [14]: 5.8 nM
Ki [15]: 1.2 nM

B5: active MMP-9-binding peptide M91011 (designed binder)
chain: GSGMKETAAAKFERQHMDSPDLGTDDDDKAMADIGSANSDPQFGLFSKYRTPNCMMYKYAQCSHKSQPVCGSDMSTYANECTLCMKIREGGHNIKIIRNGPCGASAAA
IC50 [1]: > 1000 nM
IC50 [2]: > 1000 nM
IC50 [3]: > 1000 nM
IC50 [4]: > 1000 nM
IC50 [5]: > 1000 nM
IC50 [6]: > 1000 nM
IC50 [7]: > 1000 nM
IC50 [8]: > 1000 nM
IC50 [9]: > 1000 nM
IC50 [10]: > 1000 nM
IC50 [11]: > 1000 nM
IC50 [12]: > 1000 nM
IC50 [13]: > 1000 nM
Ki [15]: 1.6 nM

B6: active MMP-9-binding peptide M91005 (designed binder)
chain: GSGMKETAAAKFERQHMDSPDLGTDDDDKAMADIGSANSDPQFGLFSKYRTPNCRKRGGPSCQMSYNPVCGSDMSTYANECTLCMKIREGGHNIKIIRNGPCGASAAA
IC50 [1]: > 1000 nM
IC50 [2]: > 1000 nM
IC50 [3]: > 1000 nM
IC50 [4]: > 1000 nM
IC50 [5]: > 1000 nM
IC50 [6]: > 1000 nM
IC50 [7]: > 1000 nM
IC50 [8]: > 1000 nM
IC50 [9]: > 1000 nM
IC50 [10]: > 1000 nM
IC50 [11]: > 1000 nM
IC50 [12]: > 1000 nM
IC50 [13]: > 1000 nM
IC50 [14]: 8.2 nM
Ki [15]: 1.4 nM

B7: active MMP-9-binding peptide M91012 (designed binder)
chain: GSGMKETAAAKFERQHMDSPDLGTDDDDKAMADIGSANSDPQFGLFSKYRTPNCRVRGGPSCQMSFNPVCGSDMSTYANECTLCMKIREGGHNIKIIRNGPCGASAAA
IC50 [1]: > 1000 nM
IC50 [2]: > 1000 nM
IC50 [3]: > 1000 nM
IC50 [4]: > 1000 nM
IC50 [5]: > 1000 nM
IC50 [6]: > 1000 nM
IC50 [7]: > 1000 nM
IC50 [8]: > 1000 nM
IC50 [9]: > 1000 nM
IC50 [10]: > 1000 nM
IC50 [11]: > 1000 nM
IC50 [12]: > 1000 nM
IC50 [13]: > 1000 nM
IC50 [14]: 8.6 nM
Ki [15]: 2.1 nM

B8: active MMP-9-binding peptide M91002 (designed binder)
chain: GSGMKETAAAKFERQHMDSPDLGTDDDDKAMADIGSANSDPQFGLFSKYRTPNCRTGRGPACQMGFQPVCGSDMSTYANECTLCMKIREGGHNIKIIRNGPCGASAAA
IC50 [1]: > 1000 nM
IC50 [2]: > 1000 nM
IC50 [3]: > 1000 nM
IC50 [4]: > 1000 nM
IC50 [5]: > 1000 nM
IC50 [6]: > 1000 nM
IC50 [7]: > 1000 nM
IC50 [8]: > 1000 nM
IC50 [9]: > 1000 nM
IC50 [10]: > 1000 nM
IC50 [11]: > 1000 nM
IC50 [12]: > 1000 nM
IC50 [13]: > 1000 nM
IC50 [14]: 8.5 nM
Ki [15]: 2.3 nM
